Drawing on patent publication US20090325262A1, “Immobilization of biological molecules onto surfaces coated with monolayers” (SURFACE LOGIX, INC., priority 2001, published 2009), this text covers SPR response (RU) and Km for 3 substances.

The target in data set [1] is biotin-NH-Arg-Asp-Cys-CONH2. Nature of the data set: SPR, fibrinogen (0.5 mg/mL) flowed over 2% maleimide SAM treated with the peptide; FIG. 4.
Data set [2] deals with CCCC(=O)Oc1ccc([N+](=O)[O-])cc1. Description: purified protein, by the assay type. To be noted: other: substrate of recombinant cutinase; release of PNP followed by absorbance.
Experimental: The cutinase concentration was 1 M. The release of PNP was followed using absorbance spectroscopy.
Spectrophotometric measurement was performed at room temperature using BECKMAN DU-640 spectrophotometer (BECKMAN COULTER, INC., Fullerton, Calif.). Esterase activity of purified recombinant cutinase was measured by monitoring p-nitrophenol butyrate (PNB) hydrolysis rates at 410 nm (=8,800 M-1 cm-1) in buffer A.
In data set [3] the target is biotin-NH-Arg-Asp-Cys-CONH2. Nature of the data set: SPR (Biacore 3000), streptavidin flowed over 2% maleimide SAM treated with the peptide (1.2 mM, 12 min); FIG. 3 sensorgram A. (In general: In SPR one partner is held on a chip, and binding of the other changes the refractive index at the surface.)

Substance fibrinogen showed an SPR response (RU) in data set [1] of 60 RU.
The term Km denotes the substrate concentration at which the rate is half of its maximum. As for cutinase (Fusarium vanettenii), the Km in data set [2] came out at 1 mM.
Substance “streptavidin (from UniProt P22629 37-163)” registered an SPR response (RU) in data set [3] of 2280 RU.
